Measurements: patent US5607849
Read-outs that look alike come from different tables or passages of the source. Each block holds one substance with its values, some of them ahead of it.

Experiments:
dimethylated casein [1] = target: dimethylated casein
dimethylated casein [2] = target: dimethylated casein; remark: listed apart in the source
dimethylated casein [3] = target: dimethylated casein; remark: listed apart in the source

relative activity (fluorescence intensity due to bonding of monodansylcadaverine with dimethylated casein) (units/mg protein) (dimethylated casein [1]): 807
Substance: Pagrus major liver-derived transglutaminase, natural enzyme purified from liver (heparin fraction)

Relative fluorescence intensity (bonding of monodansyl cadaverine with dimethylated casein) (relative fluorescence intensity) (dimethylated casein [2]): 910
Substance: Pagrus major transglutaminase, recombinant (expressed from the cDNA of pSLTG5 by plasmids pIL6TG1 and pTTG2-22 in E. coli HB101 and pYSTG1 in Saccharomyces cerevisiae INVSC2) (enzyme)

relative activity (fluorescence intensity due to bonding of monodansylcadaverine with dimethylated casein) (units/mg protein) (dimethylated casein [3]): 591
Substance: Alaska pollack (Theragra chalcogramma) liver-derived transglutaminase, natural enzyme purified from liver (S-Sepharose fraction)
